This assay concerns the target T1, progesterone receptor, B isoform (PR-B) (UniProt P06401 1-933).
T1 sequence: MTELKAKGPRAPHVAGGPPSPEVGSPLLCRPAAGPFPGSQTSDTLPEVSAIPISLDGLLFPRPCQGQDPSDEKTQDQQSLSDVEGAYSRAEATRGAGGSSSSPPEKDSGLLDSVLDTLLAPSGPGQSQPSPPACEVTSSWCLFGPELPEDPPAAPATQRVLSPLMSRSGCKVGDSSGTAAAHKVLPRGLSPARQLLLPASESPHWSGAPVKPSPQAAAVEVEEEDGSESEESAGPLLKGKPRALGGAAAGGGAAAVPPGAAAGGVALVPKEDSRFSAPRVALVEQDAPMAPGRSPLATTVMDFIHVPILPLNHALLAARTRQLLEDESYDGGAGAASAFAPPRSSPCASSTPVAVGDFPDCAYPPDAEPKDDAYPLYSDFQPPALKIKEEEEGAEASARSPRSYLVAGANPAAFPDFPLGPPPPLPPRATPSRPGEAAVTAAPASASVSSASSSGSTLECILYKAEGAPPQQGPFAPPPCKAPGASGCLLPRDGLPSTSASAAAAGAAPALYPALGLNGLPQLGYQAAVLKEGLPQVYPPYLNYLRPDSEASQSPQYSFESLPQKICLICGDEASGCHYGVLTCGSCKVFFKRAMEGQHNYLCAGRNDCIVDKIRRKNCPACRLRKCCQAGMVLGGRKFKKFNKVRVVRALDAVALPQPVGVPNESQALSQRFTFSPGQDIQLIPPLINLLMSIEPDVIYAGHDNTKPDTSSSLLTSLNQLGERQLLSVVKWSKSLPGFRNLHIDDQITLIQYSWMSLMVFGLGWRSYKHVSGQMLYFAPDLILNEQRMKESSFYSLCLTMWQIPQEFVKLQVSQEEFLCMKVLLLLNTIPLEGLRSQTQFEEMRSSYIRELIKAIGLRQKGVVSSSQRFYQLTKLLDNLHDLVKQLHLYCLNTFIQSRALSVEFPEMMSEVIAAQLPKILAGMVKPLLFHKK
Briefly: FRET or BRET. (In BRET a luciferase serves as donor, and the signal depends on an acceptor being close.)

B1: estrogen receptor alpha Y537S (ERα Y537S) (receptor)
chain: MTMTLHTKASGMALLHQIQGNELEPLNRPQLKIPLERPLGEVYLDSSKPAVYNYPEGAAYEFNAAAAANAQVYGQTGLPYGPGSEAAAFGSNGLGGFPPLNSVSPSPLMLLHPPPQLSPFLQPHGQQVPYYLENEPSGYTVREAGPPAFYRPNSDNRRQGGRERLASTNDKGSMAMESAKETRYCAVCNDYASGYHYGVWSCEGCKAFFKRSIQGHNDYMCPATNQCTIDKNRRKSCQACRLRKCYEVGMMKGGIRKDRRGGRMLKHKRQRDDGEGRGEVGSAGDMRAANLWPSPLMIKRSKKNSLALSLTADQMVSALLDAEPPILYSEYDPTRPFSEASMMGLLTNLADRELVHMINWAKRVPGFVDLTLHDQVHLLECAWLEILMIGLVWRSMEHPGKLLFAPNLLLDRNQGKCVEGMVEIFDMLLATSSRFRMMNLQGEEFVCLKSIILLNSGVYTFLSSTLKSLEEKDHIHRVLDKITDTLIHLMAKAGLTLQQQHQRLAQLLLILSHIRHMSNKGMEHLYSMKCKNVVPLSDLLLEMLDAHRLHAPTSRGGASVEETDQSHLATAGSTSSHSLQKYYITGEAEGFPATV
B1: the “fold of the progesterone-induced increase in NanoBRET proximity against ERα WT” value was around 2 fold.
